Test results reported in patent US20160185837A1 (Medimmune Limited, priority 2013, published 2016).

What was measured:
Assay type in all cases: cell-based
[1] = molecular target: T1, human GLP-1 receptor (hGLP-1r) (Homo sapiens, UniProt P43220); test: BSA-cAMP assay, cells expressing human GLP-1 receptor
T1 construct: expressed in transfected cells
Method in brief: (§1)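 EC50 came from an unconstrained 4-parameter logistic fit of HTRF cAMP data expressed as percent of maximal native agonist activation, tested on two occasions. Thawed receptor-expressing cells (hGLP-1r, hGIPr at 0.5×10^5 cells/ml) treated 30 min at room temperature in 0.1% BSA-containing medium; two distinct hGIPr lines.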

[2] = molecular target: T2, human GIP receptor (hGIPr) (Homo sapiens, UniProt P48546); test: BSA-cAMP assay, cells expressing human GIP receptor
T2 construct: expressed in transfected cells
T2 sequence (P48546 22-466): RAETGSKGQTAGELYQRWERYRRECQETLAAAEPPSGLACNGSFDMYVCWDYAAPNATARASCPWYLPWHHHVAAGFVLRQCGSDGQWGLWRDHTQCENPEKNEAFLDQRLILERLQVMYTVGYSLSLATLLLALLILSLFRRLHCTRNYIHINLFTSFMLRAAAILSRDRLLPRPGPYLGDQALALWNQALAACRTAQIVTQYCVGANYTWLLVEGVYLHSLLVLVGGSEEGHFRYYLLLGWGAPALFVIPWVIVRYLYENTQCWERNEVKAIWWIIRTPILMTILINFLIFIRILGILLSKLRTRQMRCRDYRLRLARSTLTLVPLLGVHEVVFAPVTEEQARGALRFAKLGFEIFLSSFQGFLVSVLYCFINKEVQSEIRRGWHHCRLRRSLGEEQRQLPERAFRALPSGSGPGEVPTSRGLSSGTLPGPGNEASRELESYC
Method in brief: as §1

[3] = molecular target: T3, rat GLP-1 receptor (rGLP-1r) (Rattus norvegicus, UniProt P32301); test: BSA-cAMP assay, cells expressing rat GLP-1 receptor
T3 construct: expressed in transfected cells; host or cells: HEK293s or CHO cells
T3 sequence (P32301 22-463): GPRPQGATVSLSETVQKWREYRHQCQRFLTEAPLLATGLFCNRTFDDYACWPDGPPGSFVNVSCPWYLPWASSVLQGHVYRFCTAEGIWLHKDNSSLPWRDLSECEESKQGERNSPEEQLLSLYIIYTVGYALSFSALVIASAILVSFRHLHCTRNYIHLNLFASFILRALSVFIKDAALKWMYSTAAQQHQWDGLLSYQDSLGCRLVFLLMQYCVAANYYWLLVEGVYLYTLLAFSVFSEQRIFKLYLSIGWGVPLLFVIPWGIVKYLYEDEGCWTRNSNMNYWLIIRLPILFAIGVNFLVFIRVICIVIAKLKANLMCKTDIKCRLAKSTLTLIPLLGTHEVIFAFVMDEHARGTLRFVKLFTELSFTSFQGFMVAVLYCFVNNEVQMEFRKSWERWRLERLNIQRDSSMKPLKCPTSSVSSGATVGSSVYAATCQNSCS
Method in brief: (§2)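 EC50 is the midpoint of an unconstrained 4-parameter logistic fit to HTRF cAMP data, expressed as percent of maximal native agonist response, from two separate occasions. Rodent (mouse, rat) GLP-1R- or GIPR-expressing cells were incubated with compound 30 min at room temperature in 0.1% BSA medium, in duplicate.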

rat GIP receptor (rGIPr) = molecular target: T4, rat GIP receptor (rGIPr) (Rattus norvegicus, UniProt P43219); test: BSA-cAMP assay, cells expressing rat GIP receptor
T4 construct: expressed in transfected cells; host or cells: HEK293s or CHO cells
T4 sequence (P43219 19-455): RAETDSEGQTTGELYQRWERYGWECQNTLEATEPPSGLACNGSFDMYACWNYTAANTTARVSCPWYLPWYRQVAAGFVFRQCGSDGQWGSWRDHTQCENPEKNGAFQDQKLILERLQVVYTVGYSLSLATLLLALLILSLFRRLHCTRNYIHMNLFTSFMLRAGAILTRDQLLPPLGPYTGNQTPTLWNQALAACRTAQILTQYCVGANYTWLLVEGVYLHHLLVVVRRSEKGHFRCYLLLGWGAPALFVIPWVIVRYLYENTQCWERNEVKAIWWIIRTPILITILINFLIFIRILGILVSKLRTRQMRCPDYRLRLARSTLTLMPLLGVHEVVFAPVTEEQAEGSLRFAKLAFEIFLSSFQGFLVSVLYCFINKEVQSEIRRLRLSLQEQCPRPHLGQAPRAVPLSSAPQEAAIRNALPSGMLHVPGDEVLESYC
Method in brief: as §2

T1 sequence (P43220 24-463): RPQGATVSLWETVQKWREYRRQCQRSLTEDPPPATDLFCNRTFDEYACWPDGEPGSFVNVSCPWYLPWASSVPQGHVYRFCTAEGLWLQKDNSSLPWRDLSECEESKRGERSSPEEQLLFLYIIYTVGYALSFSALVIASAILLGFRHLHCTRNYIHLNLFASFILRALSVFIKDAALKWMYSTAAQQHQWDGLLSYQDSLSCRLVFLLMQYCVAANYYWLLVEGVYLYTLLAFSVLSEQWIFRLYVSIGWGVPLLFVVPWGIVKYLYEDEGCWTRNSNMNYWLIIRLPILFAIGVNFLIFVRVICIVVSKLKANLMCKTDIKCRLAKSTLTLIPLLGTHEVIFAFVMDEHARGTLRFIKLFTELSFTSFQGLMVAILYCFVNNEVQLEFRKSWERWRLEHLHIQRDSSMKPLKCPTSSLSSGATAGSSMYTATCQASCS

B1: IP088: Fc fusion, IgG1-TM, SEQ ID NO:105; agonist peptide YSEGTFTSDYSKLLEEEAVRLFIEWLVKGP (SEQ ID NO:15) (protein)
chain: YSEGTFTSDYSKLLEEEAVRLFIEWLVKGPAAAGGSGSTASSGSGSATGGGGAATHTCPPCPAPEF
modifications: also: Fc fusion, IgG1-TM
With B1 the “potency for GLP-1r, in words” value ([1]; human receptor) was “high potency”, the “potency for GIPr, in words” value ([2]; human receptor) was “high potencies” and the “potency for GLP-1r, in words” value ([3]; rat receptor) was “high potency”. The “potency for GIPr, in words” value (rat GIP receptor (rGIPr); rat receptor) was “high potencies”.

B2: IP367 (protein)
chain: YSEGTFTSDYRILKERQAIDEFIAWLLKGGAAAGGSGSTASSGSGSATGGGGAATHTCPPC
For B2, the EC50 ([1]; Batch 1, BSA-cAMP assay, read-out: hGLP1r cAMP activity EC50) was 4.4 nM, the EC50 ([2]; Batch 1, BSA-cAMP assay, read-out: hGIPr cAMP activity EC50) was 0.057 nM and the EC50 ([3]; Batch 1, BSA-cAMP assay, read-out: rGLP1r cAMP activity EC50) was 8 nM. The EC50 (rat GIP receptor (rGIPr); Batch 1, BSA-cAMP assay, read-out: rGIPr cAMP activity EC50) was 0.0099 nM.
